What was measured:
murine STING = target: T1, murine STING (Mus musculus, UniProt Q3TBT3); details: cited from earlier work
T1 sequence (Q3TBT3 1-378): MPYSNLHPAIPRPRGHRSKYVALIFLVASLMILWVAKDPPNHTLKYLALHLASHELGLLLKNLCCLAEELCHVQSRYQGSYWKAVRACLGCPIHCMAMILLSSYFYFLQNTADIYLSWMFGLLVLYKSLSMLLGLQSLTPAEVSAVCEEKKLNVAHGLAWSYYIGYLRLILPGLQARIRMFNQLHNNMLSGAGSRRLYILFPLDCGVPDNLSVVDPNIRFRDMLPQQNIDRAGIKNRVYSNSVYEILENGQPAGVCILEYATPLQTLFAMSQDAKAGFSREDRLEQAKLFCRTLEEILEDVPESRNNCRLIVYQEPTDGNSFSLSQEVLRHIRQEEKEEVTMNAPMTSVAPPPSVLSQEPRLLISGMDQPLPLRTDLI

B16 cells = experiment: Radiation and IFN signaling on activation of the ISREx4 promoter (luciferase); format: cell-based, murine; details: B16 cells transduced with AAV8-ISREx4-LucmiR122T
Experimental: To this end, B16 cells received 8 Gy or 0 Gy as described above and then were transduced with AAV8-ISREx4-LucmiR122T (1×10^5 viral genomes/cell) and 48 h later 1,000 IU of either IFN-α, IFN-β or IFN-γ were added to the culture and luciferase activity was measured 48 h later as described above.

[1] = system: MC38 cell lines stably expressing hSTINGmut; experiment: Luciferase activity under chemokine promoters; format: cell-based, murine; details: for luciferase activity upon DMXAA: DMXAA 50 μg/mL, 3 or 6 h, compared to the IFN-β promoters; for luciferase activity in the absence of DMXAA (leaky expression): vehicle
Experimental: The CXCL9-promoter (CXCL9 according to SEQ ID NO: 23) and the CXCL10-promoter (CXCL10 according to SEQ ID NO: 24) were used for the following experiment. To this end, lentiviral vectors encoding luciferase under the control of these two different promoters were constructed. […] In addition, the lentiviral vectors encoding the short IFN-β A promoter, the short IFN-β B promoter, the short IFN-β C promoter described in experiment 1 were used as a comparison. […] After another 3 or 6 h, cells were harvested and luciferase activity measured as described in experiment 1.

[2] = system: MC38 cell lines stably expressing hSTINGmut; experiment: scIL-12 mRNA and protein expression under STING-activity dependent promoters; format: cell-based, murine; details: for scIL-12 mRNA or protein expression upon DMXAA: DMXAA 50 μg/mL
Excerpt: The CXCL9-promoter and the CXCL10-promoter from experiment 2, and a full length IFN-β-promoter (IFN-β according to SEQ ID NO: 25) were used for the following experiment. To this end, lentiviral vectors encoding murine scIL-12 under the control of these three different promoters were constructed. […] After the indicated time points, cells were harvested. The cell lysate was used to measure scIL-12 mRNA expression by qPCR as described before (example 1, experiment 1), whereas the supernatant was used to measure secreted scIL-12 protein in NUNC MaxiSorp flat-bottom 96-well plates using an ELISA assay kit (OptEIA, Mouse IL-12 (p70), BD Biosciences, San Diego, CA USA), following manufacturer's instructions.

[3] = system: HEK293T cells stably expressing hSTINGmut; experiment: Luciferase activity under synthetic promoters; format: cell-based, human; details: for luciferase activity upon DMXAA (inducibility): DMXAA 50 μg/mL; for luciferase activity in the absence of DMXAA (leakage): vehicle
Excerpt: (§1) Seven different promoters were generated, namely short STATx4 (4 STAT motifs separated by 6 nucleotides according to SEQ ID NO: 26), IRSF3×4 (4 IRSF3 motifs separated by 20 nucleotides according to SEQ ID NO: 27), short IRSF3×4 (4 IRSF3 motifs separated by 6 nucleotides according to SEQ ID NO: 28), ISREx4 (4 ISRE motifs separated by 20 nucleotides according to SEQ ID NO: 12), short ISREx4 (4 ISRE motifs separated by 6 nucleotides according to SEQ ID NO: 13), NFκBx4 (4 NFκB motifs separated by 20 nucleotides according to SEQ ID NO: 29) and short NFκBx4 (4 NFκB motifs separated by 6 nucleotides according to SEQ ID NO: 30). […] In addition, a plasmid containing the luciferase sequence under the control of the murine IFN-β-promoter (mIFN-β) and a plasmid containing the luciferase sequence under the control of CXCL10-promoter were used as controls. Either MC38 cells or human HEK293T cells, both which stably expressed hSTINGmut as described above (example 1), were transfected with the indicated plasmids using Lipofectamine3000 according to the manufacturers protocol, whereas a negative control was mock-transfected (Basic).

[4] = system: MC38 cells stably expressing hSTINGmut; experiment: Luciferase activity under synthetic promoters; format: cell-based, murine; details: DMXAA 50 μg/mL
Excerpt: as §1

[5] = 1,000 IU interferon alone (0 Gy)
[6] = interferon together with radiation 8 Gy

## O=C(O)Cc1cccc2c(=O)cc(-c3ccccc3)oc12 [FAA, flavone-8-acetic acid]
Murine STING
  activation of murine STING: activated

## IFN-α
B16 cells; [5]
  luciferase activity: significantly increased luciferase activity
B16 cells; [6]
  luciferase activity: induced luciferase activity dramatically

B1: IFN-γ: exogenously added interferon, 1,000 IU (protein, UniProt P01579 24-161, looked up)
Interferon gamma: QDPYVKEAENLKKYFNAGHSDVADNGTLFLGILKNWKEESDRKIMQSQIVSFYFKLFKNFKDDQSIQKSVETIKEDMNVKFFNSNKKKRDDFEKLTNYSVTDLNVQRKAIHELIQVMAELSPAAKTGKRKRSQMLFRG
B16 cells; [5]
  luciferase activity: significantly increased luciferase activity
B16 cells; [6]
  luciferase activity: induced luciferase activity dramatically

B2: CXCL9-promoter: CXCL9 promoter according to SEQ ID NO: 23 (nucleic acid, listed as Mus musculus)
DNA: GACACAGACATCTCGTGAAACATCTGGAAAAGGTAGCAGGGAACGGGACAGCAGTAGCTTATGCAACTAATCTAGCAATTACAATGATAGGAAACTGTAGCCACGGTGAGACGAAATGGATTTACCCTCAACAAATTAAGAAGCTTTGACTTGTGAGGAAAGGCAGTTTGAGTCGCCATATAGTGTCATGTCCCACGTGGGAAGTACATCTCCAACCTTCATTGTACAACATTAATATAGTCATTGTATAATCTATTCCACATCCAGGTAGCAACTTTGCCTGGGGGTGGTTTCACATCCCTTACTATAAACTCCCCGTTTATGTGAAATGGAAGTAGAACATGCAGAAATTCCCTGGGATCTGAGAGTAGGGTTTTCCCCAGGACGATCAATTTGTGGTTAGTTTAGTTCTTCTAGGTCAGCTGAGGAGACCAGCCAATCAGAGACGGGAAGGAAAAGGGATTTCCTAAATAAATATGATCCCCAAGAACATGCTCTCTAAAGACATTCTCGGACTTCACTCCAACACAGTGACTCAATAGAACTCAGCTCTGCC
modifications: misc_feature 1..556 CXCL9-promoter
[1]
  luciferase activity upon DMXAA: significantly higher luciferase activities
  luciferase activity in the absence of DMXAA (leaky expression): significant luciferase activity
[2]
  scIL-12 mRNA or protein expression upon DMXAA: poor

B3: ISREx4-promoter: 4 ISRE motifs separated by 20 nucleotides according to SEQ ID NO: 12 (nucleic acid)
DNA: ATCTCTGCGATGAACCTCACAGTTTCGCTTTCTATCTCTGCGATGAACCTCACAGTTTCGCTTTCTATCTCTGCGATGAACCTCACAGTTTCGCTTTCTATCTCTGCGATGAACCTCACAGTTTCGCTTTCTGTGCCTCTTATGATCTGGATCTCGAGCCATGGTCGAGGCCTGTAGGCGTGTACGGTGGGAGGCTTATATAAGCAGAGCTC
modifications: misc_feature 1..212 ISREx4
[3]
  luciferase activity upon DMXAA (inducibility): highest inducibility
  luciferase activity in the absence of DMXAA (leakage): undetectable leakage

B4: IFN-β-promoter: full length IFN-β-promoter according to SEQ ID NO: 25 (nucleic acid, listed as Mus musculus)
DNA: CCAGGATGTGGGGTTCTCTCCCAAAGGGAGCTATGGCCCATTGATGTGCCATTTCTCTTATAGTACACTATTGTAAGCCCCCTGGGAGCTCACAGAGACCCTCTCCCACCATCCCACTATTTCAAAGGGCAGCAGCTGTGCCATCCTTTCAGGATGAGCAGCTACTCTGCCTGGCTTTTCAGTGGACACTTTGGCTGTTTGAGAGTTCTTTTATCTTCAGGGCTGTCTCCTTTCTGTTCTTCTCTCCTGGATATTTCTCTTCCTTTGCTCCAGCAATTGGTGAAACTGTACAAGATTTTATAAATCCTTAGTTTGTATATATTTTAACCCAGTACATAGCATATAAAATAGCCAGGAGCTTGAATAAAATGAATATTAGAAGCTGTTAGAATAAGAGAAAATGACAGAGGAAAACTGAAAGGGAGAACTGAAAGTGGGAAATTCCTCTGAGGCAGAAAGGACCATCCCTTATAAATAGCACAGGCCATGAAGGAAGATCATTCTCACTGCAGCCTTTGACAGCCTTTGCCTCATCTTGCAGGTAGCAGCCGACACCAGCCTGGCTTCCATC
modifications: misc_feature 1..571 IFNb1-promoter
[2]
  scIL-12 mRNA or protein expression upon DMXAA: poor

B5: CXCL10-promoter: CXCL10 promoter according to SEQ ID NO: 24 (nucleic acid, listed as Mus musculus)
DNA: TCTAACTGTTCACTAAGTTGTATAGACTTTGGATCTGGCTAAATTTGGCGTGTGATTTTTTTTTAAAGTTTATTCCAAGTATTTTATAATAAAGCATATGAAGTAAAAAGCAAAAATAAACAGTGTAAACACAACAAATGTAAAAACCATGGTTAGAACCTGACTTAGATATCAGTTCTGTGTTTTATTTATGAGAGAAGGAAGATGAGAATTAAAGCCATTTCCAGACTTATTCTGCAAGGCACTGCATCTGATTTCTCAAACAGCTCACGCTTTGGAAAGTGAAACTTACCTCACTCGTTAAAAATTAAAAGGAGCACAAGAGGGGAGAGGGAAATTCCAAGTTCATGGGTCACAATAAACACAAGCAATGCCCTCGGTTTACAGGGGACTTCCCTCGGGTTGCGGAGCCTTGCTGAGTCATCTCCAAAGTCAGCCAATCAGGACTCAGGGAGGGAAACTCTTTGCAGATAAATACTCCTCAGCAGCCGGCACTCGAGAAGCGCTTCATCCACCGCTGAGAGACATCCCGAGCCAACCTTCCGGAAGCCTCCCCATCAGCACC
modifications: misc_feature 1..565 CXCL10-promoter
[1]
  luciferase activity upon DMXAA: significantly higher luciferase activities
  luciferase activity in the absence of DMXAA (leaky expression): significant luciferase activity
[2]
  scIL-12 mRNA or protein expression upon DMXAA: highly upregulated
[2]; vehicle
  scIL-12 production in the absence of DMXAA (leakage): significant leakage
[3]
  luciferase activity upon DMXAA (inducibility): highest inducibility
  luciferase activity in the absence of DMXAA (leakage): considerable leakage

B6: short STAT-promoter: 4 STAT motifs separated by 6 nucleotides according to SEQ ID NO: 26 (nucleic acid)
DNA: ATCTCTGCGATGAACCTCACTTCGCTAGAAATCTCTGCGATGAACCTCACTTCGCTAGAAATATCTCTGCGATGAACCTCACTTCGCTAGAAATCTCTGCGATGAACCTCACTTCGCTAGAAGTGCCTCTTATGATCTGGATCTCGAGCCATGGTCGAGGCCTGTAGGCGTGTACGGTGGGAGGCTTATATAAGCAGAGCTC
modifications: misc_feature 1..202 STATx4
[4]
  luciferase activity upon DMXAA (inducibility): poor inducibility

From patent publication US20250188143A1, “COMBINED GENE AND RADIO THERAPY FOR THE TREATMENT OF CANCER” (FUNDACION PARA LA INVESTIGACION MEDICA APLICADA, priority 2022, published 2025)
